For assay [1], the target named is T1, SARS-CoV-2 RBD (WT) (SARS-CoV-2 Wuhan-Hu-1 (wildtype), UniProt P0DTC2). The assay can be described thus: BLI. The following applies: both partners purified.
The target in assay [2] is T1, SARS-CoV-2 RBD (WT). As to the kind of experiment: BLI. The following applies: both partners purified. The source holds these as a separate data set.
Assay [3] has as its target Bat CoV RaTG13 RBD (Bat coronavirus RaTG13, UniProt A0ABF7PLN6, strain). As to the kind of experiment: BLI. The following applies: both partners purified.
The target of a further assay is Pangolin CoV GD1 RBD (Pangolin coronavirus Guangdong, isolate …, strain). As to the kind of experiment: BLI. As to conditions: both partners purified.
Assay [4] concerns the target T2, wildtype SARS-CoV-2 spike receptor binding domain (RBD), residues 319-541 (SARS-CoV-2, wildtype (ancestral), UniProt P0DTC2). The assay can be described thus: BLI. As to conditions: both partners purified.
The target of assay [5] is T2, wildtype SARS-CoV-2 spike receptor …. The assay can be described thus: cell-based or functional assay.
Assay [6] addresses Bat CoV RaTG13 RBD (Bat coronavirus RaTG13, UniProt A0ABF7PLN6). The assay can be described thus: BLI. The following applies: both partners purified.
Another assay concerns the target SARS-CoV-1 RBD (SARS-CoV-1, strain , UniProt P59594). As to the kind of experiment: BLI. The following applies: both partners purified.

Results on eight molecules are retold here after paper PMC11366018 (Nature Communications, 2024).

B1: R1-26 (antibody, V domains shown)
VH: EVQLVESGGGLVQPGGSLRLSCAASGFTFSSYWMSWVRQAPGKGLEWVANIKQDGSEKYYVDSVKGRFTISRDNAKNSLYLQMNSLRAEDTAVYYCARGQLGPWVGVDYWGQGTLVTVSS
VL: NFMLTQPHSVSESPGKTVTISCTGSSGSIASNYVQWYQQRPGSAPTTVIYEDNQRPSGVPDRFSGSIDSSSNSASLTISGLKTEDEADYYCQSYDSSNWVFGGGTQLTVL
The Kd is the free concentration of one partner at which half of the binding sites on the other are occupied at equilibrium, for simple one-to-one binding. The low end stands for a tighter complex, the high end for a looser complex. What is called koff is the rate constant with which the complex falls apart. A lower koff goes with a long-lived complex. In general, kon refers to the second-order rate constant of association. A higher kon goes with fast association. As to B1, in the assay with SARS-CoV-2 RBD (WT) [1], the dissociation constant (Kd) was found to be 3.84 nM, the dissociation rate constant (koff) was 0.00177 s⁻¹ and the kon stood at 460000 M⁻¹ s⁻¹.

B2: H5 (antibody, V domains shown)
VH: QVQLVESGGGLVKPGGSLRLSCAASGFTFSDYYMSWIRQAPGKGLEWVSYISSSGSTIYYADSVKGRFTISRDNAKNSLYLQMNSLRAEDTAVYYCARAKWLRGHFDYWGQGTLVTVSS
VL: NFMLTQPHSVSESPGKTVTISCTRSSGSIASNYVQWYQQRPGSSPTTVIYEDNQRPSGVPDRFSGSIDSSSNSASLTISGLKTEDEADYYCQSYDSSNVVFGGGTKLTVL
notes: human IgG1
In the assay with SARS-CoV-2 RBD (WT) [2], B2 showed a dissociation constant (Kd) of 1500 nM, an off-rate (koff) of 0.195 s⁻¹ and an on-rate constant (kon) of 129000 M⁻¹ s⁻¹. Also, in the assay with Bat CoV RaTG13 RBD [3], the binding result is given as “no binding (tested: 200 nM (highest of the series))”.

B3: H16 (antibody, V domains shown)
VH: QLQLQESGPGLVKPSETLSLTCTVSGGSISSSSYYWGWIRQPPGKGLEWIGSIYYSGSTYYNPSLKSRVTISVDTSKNQFSLKLSSVTAADTAVYYCARREWLRGPFDYWGQGTLVTVSS
VL: NFMLTQPHSVSESPGKTVTISCTRSSGSIASNYVQWYQQRPGSSPTTVIYEDNQRPSGVPDRFSGSIDSSSNSASLTISGLKTEDEADYYCQSYDSSNVVFGGGTKLTVL
notes: human IgG1
As to B3, in the assay with SARS-CoV-2 RBD (WT) [2], the Kd came to 97.9 nM, the off-rate constant (koff) turned out to be 0.0498 s⁻¹ and the on-rate (kon) worked out at 509000 M⁻¹ s⁻¹. Besides, the binding result with Bat CoV RaTG13 RBD [3] is on record as “no binding (tested: 200 nM (highest of the series))”. Also, in the assay with Pangolin CoV GD1 RBD, binding was put at a Kd of 737 nM, the off-rate (koff) came out at 0.0254 s⁻¹ and the on-rate constant (kon) is 34400 M⁻¹ s⁻¹.

B4: H14 (antibody, V domains shown)
VH: QVQLQESGPGLVKPSQTLSLTCTVSGGSISSGGYYWSWIRQHPGKGLEWIGYIYYSGSTYYNPSLKSLVTISVDTSKNQFSLKLSSVTAADTAVYYCARKGWLRGAFDIWGQGTMVTVSS
VL: NFMLTQPHSVSESPGKTVTISCTRSSGSIASNYVQWYQQRPGSSPTTVIYEDNQRPSGVPDRFSGSIDSSSNSASLTISGLKTEDEADYYCQSYDSSNVVFGGGTKLTVL
notes: human IgG1
In the assay with SARS-CoV-2 RBD (WT) [2], B4 gave an equilibrium dissociation constant (Kd) of 34 nM, an off-rate constant (koff) of 0.0182 s⁻¹ and an on-rate (kon) of 536000 M⁻¹ s⁻¹. Moreover, in the assay with Bat CoV RaTG13 RBD [3], the Kd came to 302 nM, the koff worked out at 0.0151 s⁻¹ and the kon is 49900 M⁻¹ s⁻¹. Further, in the assay with Pangolin CoV GD1 RBD, binding was characterised by a dissociation constant (Kd) of 451 nM, the off-rate (koff) came out at 0.0205 s⁻¹ and the kon worked out at 45500 M⁻¹ s⁻¹.

B5: R1-26 (IgG) (antibody, V domains shown)
VH: EVQLVESGGGLVQPGGSLRLSCAASGFTFSSYWMSWVRQAPGKGLEWVANIKQDGSEKYYVDSVKGRFTISRDNAKNSLYLQMNSLRAEDTAVYYCARGQLGPWVGVDYWGQGTLVTVSS
VL: NFMLTQPHSVSESPGKTVTISCTGSSGSIASNYVQWYQQRPGSAPTTVIYEDNQRPSGVPDRFSGSIDSSSNSASLTISGLKTEDEADYYCQSYDSSNWVFGGGTQLTVL
B5 showed a Kd in assay [4] of 3.8 nM. Further, the “pseudovirus neutralization IC50 (pseudovirus displaying WT SARS-CoV-2 S-protein)” value in assay [5] was 2.7 nM.

B6: H18 (recombinant mAb, IgG) (antibody, V domains shown)
VH: QVQLQESGPGLVKPSETLSLTCTVSGGSVSSGGYFWSWIRQPPGKGLEWIGCIYYSGSTNYNPSLKSRVTISVDTSKDQFSLKLSSVTAADTAVYYCARQLWLRGRFDYWGQGTLVTVSS
VL: NFMLTQPHSVSESPGKTVTISCTRSSGSIASNYVQWYQQRPGSSPTTVIYEDNQRPSGVPDRFSGSIDSSSNSASLTISGLKTEDEADYYCQSYDSSNVVFGGGTKLTVL
For B6, the binding result with Bat CoV RaTG13 RBD [6] is on record as “binds”.

B7: H18 (antibody, V domains shown)
VH: QVQLQESGPGLVKPSETLSLTCTVSGGSVSSGGYFWSWIRQPPGKGLEWIGCIYYSGSTNYNPSLKSRVTISVDTSKDQFSLKLSSVTAADTAVYYCARQLWLRGRFDYWGQGTLVTVSS
VL: NFMLTQPHSVSESPGKTVTISCTRSSGSIASNYVQWYQQRPGSSPTTVIYEDNQRPSGVPDRFSGSIDSSSNSASLTISGLKTEDEADYYCQSYDSSNVVFGGGTKLTVL
notes: human IgG1
For the molecule B7, the dissociation constant Kd amounted to 332 nM with Bat CoV RaTG13 RBD [3], 231 nM with SARS-CoV-1 RBD and 134 nM with Pangolin CoV GD1 RBD. Moreover, the koff in the assay with Bat CoV RaTG13 RBD [3] turned out to be 0.00612 s⁻¹; in the assay with SARS-CoV-1 RBD, 0.00283 s⁻¹; in the assay with Pangolin CoV GD1 RBD, 0.00624 s⁻¹. Moreover, the results for the on-rate (kon) with Bat CoV RaTG13 RBD [3], in the assay with SARS-CoV-1 RBD and with Pangolin CoV GD1 RBD were 18400 M⁻¹ s⁻¹, 12300 M⁻¹ s⁻¹ and 46500 M⁻¹ s⁻¹, respectively.

B8: H4 (antibody, V domains shown)
VH: EVQLVESGGGLVQPGGSLRLSCAASGFTFSSYWMSWVRQAPGKGLEWVANIKQDGSEKYYVDSVKGRFTISRDNAKNSLYLQMNSLRAEDTAVYYCASQLWLRGAFDIWGQGTMVTVSS
VL: NFMLTQPHSVSESPGKTVTISCTRSSGSIASNYVQWYQQRPGSSPTTVIYEDNQRPSGVPDRFSGSIDSSSNSASLTISGLKTEDEADYYCQSYDSSNVVFGGGTKLTVL
Turning to B8, in the assay with SARS-CoV-2 RBD (WT) [2], binding was characterised by a dissociation constant (Kd) of 29.9 nM, the koff turned out to be 0.0105 s⁻¹ and the kon was 351000 M⁻¹ s⁻¹. In the assay with Bat CoV RaTG13 RBD [3], the Kd came to 503 nM, the off-rate (koff) turned out to be 0.0134 s⁻¹ and the kon was 26700 M⁻¹ s⁻¹. In the assay with Pangolin CoV GD1 RBD, this molecule yielded a dissociation constant (Kd) of 355 nM, an off-rate (koff) of 0.0102 s⁻¹ and a kon of 28800 M⁻¹ s⁻¹.
